This note sets out measurements from PMC5576569 (Journal of molecular biology, 2017).

As a reminder, the stoichiometry N is the number of molecules, sites or subunits per partner or assembly.

The series deals with the molecule itself. Description: AUC.

B1: SSB-ΔL, linkerless variant of E. coli SSB (SSBΔ115–168) (natural protein, UniProt P0AGE0 2-178, looked up)
chain: ASRGVNKVILVGNLGQDPEVRYMPNGGAVANITLATSESWRDKATGEMKEQTEWHRVVLFGKLAEVASEYLRKGSQVYIEGQLRTRKWTDQSGQDRYTTEVVVNVGGTMQMLGGMDFDDDIPF
Regarding B1, the “stoichiometry N” value was determined as 4.
